Measured values as given in patent US5180678A, “Uses of substantially pure interleukin-9 receptor” (Ludwig Institute for Cancer Research, priority 1992, dated 1993).

Assays:
IL-9R [1] = target: T1, IL-9R (Mus musculus, UniProt Q01114); experiment: Cellular distribution of IL-9R: specific binding of 125I-labeled IL-9 to cell types; set-up: a number of different cell types were tested for the presence of the IL-9R molecule; endogenous in cells
T1 sequence (Q01114 38-468): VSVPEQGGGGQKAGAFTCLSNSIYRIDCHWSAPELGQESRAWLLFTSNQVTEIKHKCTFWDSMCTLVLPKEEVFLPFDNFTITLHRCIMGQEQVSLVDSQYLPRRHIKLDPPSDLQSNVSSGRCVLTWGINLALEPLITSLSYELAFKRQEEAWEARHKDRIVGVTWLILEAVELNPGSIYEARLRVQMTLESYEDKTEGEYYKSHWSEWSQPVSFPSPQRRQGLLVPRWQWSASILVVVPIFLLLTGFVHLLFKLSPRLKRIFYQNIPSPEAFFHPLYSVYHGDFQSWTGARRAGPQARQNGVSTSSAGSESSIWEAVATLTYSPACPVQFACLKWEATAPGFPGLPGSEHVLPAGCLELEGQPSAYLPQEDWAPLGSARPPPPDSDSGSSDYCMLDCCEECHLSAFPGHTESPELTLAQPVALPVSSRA
Protocol: The molecular nature of the IL-9R was studied via affinity cross linking experiments. In these, 5×10^6 cells (TS1)/ml were incubated for three hours at 4° C. in 140 ul of binding medium, either with 1.3×10^-10 M of labeled rIL-9, or the labeled cytokine mixed with 3.1×10^-8 M of the unlabeled material. After two washes with 1 ml of cold, phosphate buffered saline (PBS) at pH 7.4, cells were resuspended in 2.25 ml of cold PBS (pH 8.4), containing 1 mM MgCl2. Disuccinimidyl suberate, solubilized in dimethylsulfoxide, was added at a final concentration of 10 ug/ml. This cross links the cytokine to the cell. […] After a 30 minute incubation on ice, the reaction was quenched by adding 2.5 ml of cold 10 mM TRIS-HCl (pH 7.4) and 1 mM EDTA. The cells were centrifuged and the resulting pellet was resuspended in 50 ul of cold lysis buffer (Tris-HCl 126 mM, pH 7.5 containing 0.7% Triton-X100, 2 mM phenylmethylsulfonyl fluoride (PMSF)), 10 mM EDTA, 10 mM 2-mercaptoethanol, and, in some cases 0.2 mM pepstatin, 2 mM O-phenanthrolin and 0.1 mM leupeptin were included. […] Following extraction, the detergent mixture was incubated for 30 minutes on ice, with insoluble material being removed by centrifuging for 15 minutes at 10,000 rpm. Supernatant was boiled for 90 seconds in the presence of 3 mg/ml of SDS, and was diluted twice with lysis buffer.
Following the protocols of Example 5, a number of different cell types were tested for the presence of the IL-9R molecule.
±Cells were incubated with ^125 Ilabeled IL9.

IL-9R [2] = target: T1, IL-9R; experiment: IL-9 binding to resting and activated T helper clones; set-up: endogenous in cells; settings: 7.5×10^-10 M labelled rIL-9
Protocol: The correlation between IL-9 and proliferation of T4 cell lines in response to IL-9 was studied. Resting T cells were collected from two week cultures, and 2×10^6 cells were stimulated by antigen (KLH, 25 ug/ml) in the presence of 70×10^6 & spleen cells for four days. Blasts were isolated by centrifugation and IL-9 binding was determined following incubation with 7.5×10^-10 M labelled rIL-9. Resting cells which had not been restimulated were treated in parallel. Maximal IL-9 induced proliferation was measured by incubation of resting cells in microliter plates (50,000/well), either with or without saturating concentrations of IL-9. Radioactive thymidine incorporation, which was the manner in which proliferation was determined, was measured on day 3.

TS1 cells = experiment: Internalization of bound labelled rIL-9 (resistance to acid induced dissociation); type: cell-based, mouse; settings: TS1 cells saturated at 4° C. with 3.3×10^-10 M labelled rIL-9, then 37° C.; after about one hour; acid pH 3.0 (FIG. 5)
Protocol: It is known that when cytokines are mixed with their receptors at 37° C., they bind thereto when incubated and this is generally followed by internalization of the cytokine. This is determined via testing for increased resistance to acid induced dissociation of bound radiolabel.
To test this for the labeled rIL-9, 7×10^6 TS1 cell/ml were incubated at 4° C. in binding medium as described supra, but lacking Na3 N, with either 3.3×10^-10 M labelled rIL-9, or this concentration of the labelled cytokine plus a 100 fold excess of unlabeled rIL-9. This saturates the cells. After three hours of incubation, the cells were washed with cold binding medium to remove unbound ligand, and the cells were transferred to medium lacking rIL-9, at a temperature of 37° C. At various time intervals, the cells were incubated for two minutes with either of 360 ul of binding medium, or with citrate buffer (50 mM, pH 2.5). Contact with citrate buffer, in effect, exposed the cells to a pH of 3.0.

In the case of “IL-9: lymphokine interleukin-9, T-cell derived growth factor; in Tables II and III the 125I-labelled recombinant form is used”, the “Specific Binding” value (IL-9R [1]; B lymphocytes LPS-blasts, 125I-labeled IL-9 3.2 × 10^-10 M) was “-- (below detection limit (<10 mol/cell))”, the “Specific Binding” value (IL-9R [1]; B lymphocytes unstimulated, 125I-labeled IL-9 3.2 × 10^-10 M) was “-- (below detection limit (<10 mol/cell))” and the “Specific Binding” value (IL-9R [1]; B-cell hybridoma 7TD1, 125I-labeled IL-9 3.2 × 10^-10 M) was “-- (below detection limit (<10 mol/cell))”. The “Specific Binding” value (IL-9R [1]; CTL clone CTL P1:5, 125I-labeled IL-9 1.6 × 10^-10 M) was “-- (below detection limit (<10 mol/cell))”, the “Specific Binding” value (IL-9R [1]; CTL clone CTL P1:204, 125I-labeled IL-9 6.2 × 10^-11 M) was “-- (below detection limit (<10 mol/cell))” and the “Specific Binding” value (IL-9R [1]; CTL clone CTL P35:10, 125I-labeled IL-9 3.3 × 10^-10 M) was “-- (below detection limit (<10 mol/cell))”. For the same substance, the “Specific Binding” value (IL-9R [1]; CTL clone CTL P35:48, 125I-labeled IL-9 1.3 × 10^-10 M) was “-- (below detection limit (<10 mol/cell))”, the “Specific Binding” value (IL-9R [1]; CTL clone CTL P91:6, 125I-labeled IL-9 1.3 × 10^-10 M) was “-- (below detection limit (<10 mol/cell))” and the “Specific Binding” value (IL-9R [1]; Carcinoa 3LL (Lewis Lung), 125I-labeled IL-9 6.2 × 10^-11 M) was “-- (below detection limit (<10 mol/cell))”. For the same substance, the “Specific Binding” value (IL-9R [1]; Factor-dependent T cells ST2K9.4A2, 125I-labeled IL-9 4.1 × 10^-10 M) was 1415 mol/cell, the “Specific Binding” value (IL-9R [1]; Factor-dependent T cells TS1, 125I-labeled IL-9 5.6 × 10^-10 M) was 2235 mol/cell and the “Specific Binding” value (IL-9R [1]; Factor-dependent T cells TUC.51S1, 125I-labeled IL-9 1.3 × 10^-10 M) was 663 mol/cell. The “Specific Binding” value (IL-9R [1]; Fibroblasts A-9, 125I-labeled IL-9 6.2 × 10^-11 M) was “-- (below detection limit (<10 mol/cell))”, the “Specific Binding” value (IL-9R [1]; Fibrosarcoma MethA, 125I-labeled IL-9 6.2 × 10^-11 M) was “-- (below detection limit (<10 mol/cell))” and the “Specific Binding” value (IL-9R [1]; KLH-primed lymph nodes (C57B/6 mice), 125I-labeled IL-9 6.2 × 10^-10 M) was “-- (below detection limit (<10 mol/cell))”. The “Specific Binding” value (IL-9R [1]; Lymphoma LBRM-33-1A5, 125I-labeled IL-9 5.6 × 10^-10 M) was 599 mol/cell, the “Specific Binding” value (IL-9R [1]; Macrophages Bone marrow derived, 125I-labeled IL-9 4.1 × 10^-10 M) was 195 mol/cell and the “Specific Binding” value (IL-9R [1]; Macrophages P399D1, 125I-labeled IL-9 6.2 × 10^-11 M) was 16 mol/cell. The “Specific Binding” value (IL-9R [1]; Macrophages PU5-1,8, 125I-labeled IL-9 1.3 × 10^-10 M) was 229 mol/cell, the “Specific Binding” value (IL-9R [1]; Mast cell line L138.C, 125I-labeled IL-9 4.1 × 10^-10 M) was 331 mol/cell and the “Specific Binding” value (IL-9R [1]; Mast cell line L138.8A, 125I-labeled IL-9 4.1 × 10^-10 M) was 2208 mol/cell. For the same substance, the “Specific Binding” value (IL-9R [1]; Myeloid Cell Line DA-1, 125I-labeled IL-9 3.2 × 10^-10 M) was 18 mol/cell, the “Specific Binding” value (IL-9R [1]; Myeloid Cell Line Ea3,15, 125I-labeled IL-9 5.6 × 10^-10 M) was “-- (below detection limit (<10 mol/cell))” and the “Specific Binding” value (IL-9R [1]; Myeloid Cell Line FDC-P1, 125I-labeled IL-9 5.6 × 10^-10 M) was “-- (below detection limit (<10 mol/cell))”. For the same substance, the “Specific Binding” value (IL-9R [1]; Myelomonocytic leukemia WEHI.3B, 125I-labeled IL-9 7.5 × 10^-10 M) was “-- (below detection limit (<10 mol/cell))”, the “Specific Binding” value (IL-9R [1]; Normal lymph nodes, 125I-labeled IL-9 6.2 × 10^-10 M) was “-- (below detection limit (<10 mol/cell))” and the “Specific Binding” value (IL-9R [1]; Plasmacytoma TEPC1033C, 125I-labeled IL-9 3.2 × 10^-10 M) was “-- (below detection limit (<10 mol/cell))”. For the same substance, the “Specific Binding” value (IL-9R [1]; Spleen Cells, 125I-labeled IL-9 3.2 × 10^-10 M) was “-- (below detection limit (<10 mol/cell))”, the “Specific Binding” value (IL-9R [1]; T lymphocytes ConA-blasts, 125I-labeled IL-9 3.2 × 10^-10 M) was “-- (below detection limit (<10 mol/cell))” and the “Specific Binding” value (IL-9R [1]; T lymphocytes unstimulated, 125I-labeled IL-9 3.2 × 10^-10 M) was “-- (below detection limit (<10 mol/cell))”. The “Specific Binding” value (IL-9R [1]; T-cell leukemia L1210, 125I-labeled IL-9 5.6 × 10^-10 M) was “-- (below detection limit (<10 mol/cell))”, the “Specific Binding” value (IL-9R [1]; T-cell leukemia LEB, 125I-labeled IL-9 6.2 × 10^-11 M) was “-- (below detection limit (<10 mol/cell))” and the “Specific Binding” value (IL-9R [1]; T-cell leukemia TH1, 125I-labeled IL-9 5.6 × 10^-10 M) was 273 mol/cell. For the same substance, the “Specific Binding” value (IL-9R [1]; Thymocytes, 125I-labeled IL-9 3.2 × 10^-10 M) was “-- (below detection limit (<10 mol/cell))”, the “Specific Binding” value (IL-9R [1]; Thymoma BW5147, 125I-labeled IL-9 6.2 × 10^-10 M) was 120 mol/cell and the “Specific Binding” value (IL-9R [1]; Thymoma EL4.16, 125I-labeled IL-9 7.5 × 10^-10 M) was 263 mol/cell. For the same substance, the “IL-9 binding Activated Cells” value (IL-9R [2]; T helper clone TUC2.15, antigen (KLH) stimulated blasts) was 532 mol/cell, the “IL-9 binding Resting Cells” value (IL-9R [2]; T helper clone TUC2.15) was 159 mol/cell and the “IL-9 binding Resting Cells” value (IL-9R [2]; T helper clone TUC7.11) was < 10 mol/cell. For the same substance, the “IL-9 binding Activated Cells” value (IL-9R [2]; T helper clone TUC7.33, antigen (KLH) stimulated blasts) was < 10 mol/cell, the “IL-9 binding Resting Cells” value (IL-9R [2]; T helper clone TUC7.33) was 21 mol/cell and the “IL-9 binding Activated Cells” value (IL-9R [2]; T helper clone TUC7.51, antigen (KLH) stimulated blasts) was 514 mol/cell. For the same substance, the “IL-9 binding Resting Cells” value (IL-9R [2]; T helper clone TUC7.51) was 94 mol/cell and the “internalization of IL-9” value (TS1 cells) was “most of the IL-9 was internalized”.
